# B1: GST-tagged Gic2N (amino acids 1–155) (domain or fragment, S. cerevisiae (budding yeast), UniProt Q06648 1-155, looked up)
# chain: MTSASITNTGNETMNLPQMRSIWLDEDEEAEKLYGLQAQQFMGSDDEENLGITFINSDKPVLSNKKNIELPPLSPNSHPSCHHRRSNSNSAKSKESSSSSSSANKTNHKKVFLKLNLLKKKLLGAQPDIRGKGISTPFDFQHISHADTRNGFQDE
# notes: also called GST-Gic2N; GST-Gic2; source: GST fusion protein, purified and conjugated to glutathione Sepharose
# Columns and labels:
# [1] = target: T1, His6-cdc42-302 (V36A F37A) (S. cerevisiae, UniProt P19073 1-191, V36A | F37A); experiment: pull-down; GST-Gic2N (a.a.1–155) on glutathione Sepharose (20 μg), His6-Cdc42 or mutant (10 μg) in the presence of GTPγS; bound protein detected with anti-Hisx6 antibody; conditions: both partners purified
# T1 construct: Cdc42, S. cerevisiae, with V36A and F37A; source: bacteria, purified (Hisx6 fusion)
# T1 sequence (P19073 whole entry V36A/F37A, the tested form may be a part): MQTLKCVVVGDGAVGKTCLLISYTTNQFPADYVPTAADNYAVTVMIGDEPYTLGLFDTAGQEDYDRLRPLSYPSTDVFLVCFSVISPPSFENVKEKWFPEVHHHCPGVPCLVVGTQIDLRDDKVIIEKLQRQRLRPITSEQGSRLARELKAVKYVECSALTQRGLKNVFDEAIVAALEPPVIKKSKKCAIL
# His6-Cdc42 = target: T2, His6-Cdc42 (S. cerevisiae, UniProt P19073 1-191); experiment: as above; conditions: both partners purified
# T2 construct: Cdc42, small GTPase, S. cerevisiae; also called Hisx6-Cdc42; Cdc42 wild type; source: bacteria, purified (Hisx6 fusion)
# T2 sequence (P19073 whole entry, the tested form may be a part): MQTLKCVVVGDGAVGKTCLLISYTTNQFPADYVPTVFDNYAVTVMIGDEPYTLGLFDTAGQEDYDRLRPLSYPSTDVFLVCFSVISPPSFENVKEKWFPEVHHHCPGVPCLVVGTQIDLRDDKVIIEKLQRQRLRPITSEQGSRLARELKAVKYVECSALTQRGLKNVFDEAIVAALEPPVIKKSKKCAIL
binder,measurement,setting,value
B1,binding result,[1],binds
same,binding result,His6-Cdc42,binds

# Source: PMC6449940, “The Cdc42 effectors Gic1 and Gic2 regulate polarized post-Golgi secretion” (Cell & Bioscience, 2019)
